Measurements reported in US20240002491A1, “METHODS FOR SELECTING PATIENTS FOR TREATMENT WITH AN NGF ANTAGONIST” (Regeneron Pharmaceuticals, Inc., priority 2022, published 2024).

Experiments:
[1] = tested on: adults with moderate-to-severe chronic pain associated with osteoarthritis (OA) of the knee or hip; assay: FACT OA2 (NCT03304379, R475-OA-1688) Phase 3 trial, WOMAC pain and physical function; assay type: in vivo, human
Text: NCT02683239 (R475-PN-1523, or “FACT LTS”), NCT03161093 (R475-OA-1611, or “FACT OA1”), and NCT03304379 (R475-OA-1688, or “FACT OA2”) each were Phase 3 trials evaluating fasinumab in adults with moderate-to-severe chronic pain associated with osteoarthritis (OA) of the knee or hip. All three of these trials enrolled patients with OA of the knee or hip who had inadequate pain relief with acetaminophen and were intolerant to or had inadequate pain relief with opioids, or were unwilling or unable to take opioids. Complete inclusion and exclusion criteria for the trials are described at clinicaltrials.gov/ct2/show/NCT03161093, clinicaltrials.gov/ct2/show/NCT03304379, and clinicaltrials.gov/ct2/show/NCT02683239.
FACT OA1 and FACT OA2 assessed the efficacy of fasinumab in comparison to nonsteroidal anti-inflammatory drugs (NSAIDs; naproxen, diclofenac, or celecoxib) for treatment of OA. FACT OA1 includes results from a total of 1,801 patients randomized to one of four treatment arms: fasinumab 1 mg SC once every 8 weeks (Q8W) (n=304), fasinumab 1 mg SC once every 4 weeks (Q4W) (n=639), naproxen 500 mg twice daily (n=644), or placebo (n=214). In FACT OA2, patients were randomized into one of six treatment groups: fasinumab 1 mg SC once every 4 weeks (Q4W), fasinumab 3 mg SC once every 4 weeks (Q4W), fasinumab 6 mg SC once every 8 weeks (Q8W), celecoxib 200 mg once daily, diclofenac 75 mg twice daily, or placebo. While the FACT OA2 trial was still ongoing, enrollment into the fasinumab 3 mg Q4W and 6 mg Q8W groups was stopped for safety considerations; patients enrolled in those dose regimens discontinued study drug and entered the post-treatment follow-up period.
Fasinumab patients in both trials also reported improvements in their pain and physical function (WOMAC score) compared to those treated with the highest-approved prescription doses of NSAIDS.

[2] = tested on: patients with OA of the knee and/or hip; assay: Integrated summary of efficacy (ISE): change in WOMAC pain subscale score at 16 weeks by joint subgroup; assay type: in vivo, human; details: 1Q4 and 1Q8 regimens; all joint subgroups; 95% confidence intervals excluded zero only for the 1-2 and 3-4 joint subgroups
Text: The integrated summary of efficacy (ISE) examined the change in WOMAC pain subscale score at 16 weeks in each of the above subgroups and is illustrated in the Forrest plot below (FIG. 4).

[3] = tested on: patients with OA of the knee and/or hip; assay: ISS post-hoc analysis combining OA joint burden and alkaline phosphatase cut-off (weeks 8-16); assay type: in vivo, human
Text: Both the baseline burden of OA and the change in alkaline phosphatase identify patients with higher risk of AA/DA/JR; these findings are observed only in the fasinumab arms, not the placebo arm, indicating an NGF-specific mechanism. The results raise the possibility of excluding high-risk patients and treating only patients with lower risk of joint-related adverse events, using more than one approach. To understand whether there is an interaction between the two approaches, and to explore a number of potential risk mitigation options, a post-hoc analysis was performed on the ISS data set to examine the impact of alkaline phosphatase within various joint subgroups. Because efficacy was preserved in the 1-2 and 3-4 joint subgroups as discussed above, the rates of AA/DA/JR were examined in overlapping subgroups: patients with 1-2, 1-3 and 1-4 joints with OA at baseline. For each of these subgroups, five potential cut-offs for change in alkaline phosphatase were explored: no change, 5-, 10-, 15- and 20-point change from baseline.
FIGS. 8A-8D show the percentage of patients with AA/DA/JR following exclusion of those who have a change in alkaline phosphatase at or above the designated cut-off at any time between weeks 8 and 16. In each of FIGS. 8A-8D, the X-axis represents overlapping bins of patients that become successively smaller as one looks left to right (percentage of the total population remaining in each bin is shown in the table beneath the graph). […] The next 5 bins to the right show the rates of AA/DA/JR in the patients who remain after excluding those above the designated cut-off for change in alkaline phosphatase. The placebo rate from the total ISS population is expressed as a solid black line.
For each of the joint related adverse events, the burden of OA and change in alkaline phosphatase are complementary from the perspective of risk-reduction. FIGS. 8A, 8C, and 8E show the reduction of risk of JR, AA, and DA, respectively, in patients treated with 1 mg fasinumab Q8W, for patients with different OA burden at different cut-off values for change in alkaline phosphatase. Similarly, FIGS. 8B, 8D, and 8F show the reduction of risk of JR, AA, and DA, respectively, in patients treated with 1 mg fasinumab Q4W, for patients with different OA burden at different cut-off values for change in alkaline phosphatase. For example, for the 1Q4 treatment arm and in the 1-2 joint subgroup, the JR rate is reduced from 7.4% in the total ISS population, to 6.4% in the 1-2 joint subgroup, to 5.5% in the population below the 20-point alkaline phosphatase cut-off—a difference of 0.4% from the ISS placebo rate (FIG. 8B). Similarly, for the 1Q4 treatment arm and in the 1-2 joint subgroup, the overall AA rate (70-80% RPDA-1) is reduced from 9.2% in the total ISS population, to 7.7% in the 1-2 joint subgroup, to 7.1% in the population below the 20-point alkaline phosphatase cut-off—a difference of 5.6% from the ISS placebo rate (FIG. 8D). Last, the DA rate is reduced from 0.5% in the total ISS population, to 0.3% in the 1-2 joint subgroup, to 0.1% in the population below the 20-point alkaline phosphatase (FIG. 8F).

alkaline phosphatase = details: cited from earlier work
[4] = FACT OA2, Week 24, fasinumab 1 mg Q4W, diclofenac 2 × 75 mg/day or celecoxib 200 mg/d
[5] = FACT OA2, Week 24, fasinumab 1 mg Q4W, nominal p < 0.0001
[6] = 1Q4, 1-2 joint subgroup, below the 20-point alkaline phosphatase cut-off
[7] = 1Q4, 1-2 joint subgroup, lower cut-offs for change in alkaline phosphatase

Fasinumab: fully-human high-affinity monoclonal antibody directed against NGF; HCVR/LCVR SEQ ID NOs: 2/10
WOMAC pain, change from baseline [1, 4]: −42%
WOMAC pain, change from baseline (score, in brackets) [1, 4]: (−2.79)
WOMAC physical function, change from baseline [1, 4]: −39%
WOMAC physical function, change from baseline (score, in brackets) [1, 4]: (−2.63)
WOMAC pain, difference vs. placebo [1, 5]: −0.79
WOMAC physical function, difference vs. placebo [1, 5]: −0.82
WOMAC physical function, difference vs. diclofenac/celecoxib ([1]; FACT OA2, Week 24, fasinumab 1 mg/month, nominal p = 0.0152): −0.36
WOMAC pain, difference vs. diclofenac/celecoxib ([1]; FACT OA2, Week 24, fasinumab 1 mg/month, nominal p = 0.0503): −0.30
co-primary endpoints: pain and physical function compared to placebo ([1]; FACT OA2, fasinumab 1 mg Q4W, p<0.01 for all endpoints): significantly reduced pain and improved physical function compared to placebo
change in WOMAC pain subscale score at 16 weeks compared with placebo [2]: numerically greater improvement compared with placebo
DA rate, difference from placebo rate ([3]; 1 mg Q4W, alkaline phosphatase cut-off of 20): 0.1%
DA rate [3, 6]: 0.1%
JR rate [3, 6]: 5.5%
JR rate, difference from the ISS placebo rate [3, 6]: 0.4%
overall AA rate [3, 6]: 7.1%
overall AA rate, difference from the ISS placebo rate [3, 6]: 5.6%
overall AA rate [3, 7]: 4.6%
overall AA rate, difference from the placebo rate [3, 7]: 2.5%
rates of JR and DA [3, 7]: approximately the placebo rates
DA rate ([3]; 1Q4, total ISS population): 0.5%
JR rate ([3]; 1Q4, total ISS population): 7.4%
overall AA rate ([3]; 1Q4, total ISS population): 9.2%
mean increase in alkaline phosphatase following initiation of therapy (alkaline phosphatase; depending upon dose): 5 to 10 U/L
time of peak of the mean increase in alkaline phosphatase (alkaline phosphatase; following initiation of therapy): approximately 16 weeks
